Experimental data taken from patent US6486303 (UNIVERSITY OF MEDICINE AND DENTISTRY OF NEW JERSEY, dated 2002).

Target: T1, rat LH receptor (rat, UniProt P16235 27-700)
T1 construct: whole, on cells; also called LH receptors
Assay: not described

T1 sequence (P16235 27-700): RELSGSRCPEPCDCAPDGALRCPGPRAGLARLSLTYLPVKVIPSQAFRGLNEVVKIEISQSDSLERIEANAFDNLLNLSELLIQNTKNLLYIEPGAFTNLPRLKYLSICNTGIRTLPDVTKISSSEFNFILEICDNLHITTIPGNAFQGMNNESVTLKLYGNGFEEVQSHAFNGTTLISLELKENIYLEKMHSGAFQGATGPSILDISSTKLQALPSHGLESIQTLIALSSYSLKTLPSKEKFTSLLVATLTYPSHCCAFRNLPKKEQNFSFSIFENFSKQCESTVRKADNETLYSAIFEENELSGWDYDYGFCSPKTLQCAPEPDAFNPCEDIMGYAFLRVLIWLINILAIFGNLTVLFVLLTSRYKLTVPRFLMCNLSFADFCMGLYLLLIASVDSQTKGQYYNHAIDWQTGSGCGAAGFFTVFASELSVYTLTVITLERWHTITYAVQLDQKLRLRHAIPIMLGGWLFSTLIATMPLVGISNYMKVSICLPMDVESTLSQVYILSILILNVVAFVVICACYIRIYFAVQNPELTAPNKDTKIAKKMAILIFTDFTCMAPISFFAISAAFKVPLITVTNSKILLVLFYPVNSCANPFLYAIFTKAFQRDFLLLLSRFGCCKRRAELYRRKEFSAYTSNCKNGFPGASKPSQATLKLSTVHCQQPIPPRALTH

B1: Fos-αδ52 + Jun-hCGβ′ heterodimer (ligand)
alpha: not shown
beta: SCGGRIARLEEKVKTLKAQNSELASTANMLREQVAQLKQKVMGLRPRCRPINATLAVEKEGCPVCITVNTTICAGYCPTMTRVLQGVLPALPQVVCNYRDVRFESIRLPGCPRGVNPVVSYAVALSCQCALCRRSTTDCGGPKDHPLTCDDPRFQDSSSSKAPPPSLPSPSRLPGPSDTPILPQ
modifications: The Cys of the N-terminal SCGG in each chain is meant to form an intersubunit disulfide.
notes: Secreted from co-transfected COS-7 cells; also called Fos-Jun hCGαδ2; copies: 1 + 1
Q: Does B1 bind?
A: binds
